Results taken from the supplement of paper PMC11246515.
± gives the standard deviation of the averaged measurements.

Assay: total protein half-life in vivo (active degradation + dilution); higher = more stable protein
[1] = E. coli NCM3722 delta-clpP delta-lon delta-hslV, growth: N-lim chemostat, doubling time 6 h
[2] = E. coli NCM3722 delta-clpP, growth: N-lim chemostat, doubling time 6 h
[3] = E. coli NCM3722 delta-hslV, growth: N-lim chemostat, doubling time 6 h
[4] = E. coli NCM3722 delta-lon, growth: N-lim chemostat, doubling time 6 h
[5] = E. coli NCM3722 delta-smpB, growth: N-lim chemostat, doubling time 6 h
[6] = wild type E. coli NCM3722, growth: C-lim chemostat, doubling time 3 h
[7] = wild type E. coli NCM3722, growth: C-lim chemostat, doubling time 6 h
[8] = wild type E. coli NCM3722, growth: C-lim chemostat, doubling time 12 h
[9] = wild type E. coli NCM3722, growth: N-lim chemostat, doubling time 6 h
[10] = wild type E. coli NCM3722, growth: N-lim chemostat, doubling time 12 h
[11] = wild type E. coli NCM3722, growth: P-lim chemostat, doubling time 6 h
[12] = wild type E. coli NCM3722, growth: P-lim chemostat, doubling time 12 h

Sequence | total protein half-life in vivo [1] [h] | total protein half-life in vivo [2] [h] | total protein half-life in vivo [3] [h] | total protein half-life in vivo [4] [h] | total protein half-life in vivo [5] [h] | total protein half-life in vivo [6] [h] | total protein half-life in vivo [7] [h] | total protein half-life in vivo [8] [h] | total protein half-life in vivo [9] [h] | total protein half-life in vivo [10] [h] | total protein half-life in vivo [11] [h] | total protein half-life in vivo [12] [h]
MKWLCSVGIAVSLALQPALADDLFGNHPLTPEARDAFVTELLKKMTVDEKIGQLRLISVGPDNPKEAIREMIKDGQVGAIFNTVTRQDIRAMQDQVMELSRLKIPLFFAYDVLHGQRTVFPISLGLASSFNLDAVKTVGRVSAYEAADDGLNMTWAPMVDVSRDPRWGRASEGFGEDTYLTSTMGKTMVEAMQGKSPADRYSVMTSVKHFAAYGAVEGGKEYNTVDMSPQRLFNDYMPPYKAGLDAGSGAVMVALNSLNGTPATSDSWLLKDVLRDQWGFKGITVSDHGAIKELIKHGTAADPEDAVRVALKSGINMSMSDEYYSKYLPGLIKSGKVTMAELDDAARHVLNVKYDMGLFNDPYSHLGPKESDPVDTNAESRLHRKEAREVARESLVLLKNRLETLPLKKSATIAVVGPLADSKRDVMGSWSAAGVADQSVTVLTGIKNAVGENGKVLYAKGANVTSDKGIIDFLNQYEEAVKVDPRSPQEMIDEAVQTAKQSDVVVAVVGEAQGMAHEASSRTDITIPQSQRDLIAALKATGKPLVLVLMNGRPLALVKEDQQADAILETWFAGTEGGNAIADVLFGDYNPSGKLPMSFPRSVGQIPVYYSHLNTGRPYNADKPNKYTSRYFDEANGALYPFGYGLSYTTFTVSDVKLSAPTMKRDGKVTASVQVTNTGKREGATVVQMYLQDVTASMSRPVKQLKGFEKITLKPGETQTVSFPIDIEALKFWNQQMKYDAEPGKFNVFIGTDSARVKKGEFELL | 6.82 ± 0.31 | 6.82 ± 0.92 | 6.51 ± 0.073 | 6.84 ± 0.088 | 5.91 ± 0.13 | 3.14 ± 0.092 | 6.17 ± 0.12 | 14.2 ± 1.2 | 6.21 ± 0.43 | 13.9 ± 0.67 | 6.21 ± 0.027 | 14.5 ± 1.1
MKYKLLPCLLAIFLTGCDRTEVTLSFTPEMASFSNEFDFDPLRGPVKDFTQTLMDEQGEVTKRVSGTLSEEGCFDSLELLDLENNTVVALVLDANYYRDAETLEKRVRLQGKCQLAELPSAGVSWETDDNGFVIKASSKQMQMEYRYDDQGYPLGKTTKSNDKTLSVSATPSTDPIKKLDYTAVTLLNNQRVGNVKQSCEYDSHANPVDCQLIIVDEGVKPAVERVYTIKNTIDYY | 2.15 ± 0.28 | 2 ± 0.022 | 2.16 ± 0.13 | 1.87 | 1.81 ± 0.19 | 1.64 ± 0.1 | 2.38 ± 0.077 | 2.85 ± 0.52 | 2.24 ± 0.56 | 2.51 ± 0.27 | 2.13 ± 0.32 | 3.98 ± 0.97
MKYQQLENLESGWKWKYLVKKHREGELITRYIEASAAQEAVDVLLSLENEPVLVNGWIDKHMNPELVNRMKQTIRARRKRHFNAEHQHTRKKSIDLEFIVWQRLAGLAQRRGKTLSETIVQLIEDAENKEKYANKMSSLKQDLQALLGKE [P0A8N0] |  | 5.544 ± 0.014 | 4.69 ± 0.85 | 5.46 ± 0.53 | 4.27 ± 1.1 | 3.13 ± 0.038 | 5.74 ± 0.2 | 10.9 ± 5.6 | 3.21 ± 1.6 | 10.7 ± 5.8 |  | 9.592 ± 0.066
MLAFLNQVRKPTLDLPLEVRRKMWFKPFMQSYLVVFIGYLTMYLIRKNFNIAQNDMISTYGLSMTQLGMIGLGFSITYGVGKTLVSYYADGKNTKQFLPFMLILSAICMLGFSASMGSGSVSLFLMIAFYALSGFFQSTGGSCSYSTITKWTPRRKRGTFLGFWNISHNLGGAGAAGVALFGANYLFDGHVIGMFIFPSIIALIVGFIGLRYGSDSPESYGLGKAEELFGEEISEEDKETESTDMTKWQIFVEYVLKNKVIWLLCFANIFLYVVRIGIDQWSTVYAFQELKLSKAVAIQGFTLFEAGALVGTLLWGWLSDLANGRRGLVACIALALIIATLGVYQHASNEYIYLASLFALGFLVFGPQLLIGVAAVGFVPKKAIGAADGIKGTFAYLIGDSFAKLGLGMIADGTPVFGLTGWAGTFAALDIAAIGCICLMAIVAVMEERKIRREKKIQQLTVA [P0AGC0] |  |  |  |  |  | 1.74 ± 0.042 | 1.96 ± 0.031 | 3.78 ± 2.4 |  |  |  | 
MLDAQTIATVKATIPLLVETGPKLTAHFYDRMFTHNPELKEIFNMSNQRNGDQREALFNAIAAYASNIENLPALLPAVEKIAQKHTSFQIKPEQYNIVGEHLLATLDEMFSPGQEVLDAWGKAYGVLANVFINREAEIYNENASKAGGWEGTRDFRIVAKTPRSALITSFELEPVDGGAVAEYRPGQYLGVWLKPEGFPHQEIRQYSLTRKPDGKGYRIAVKREEGGQVSNWLHNHANVGDVVKLVAPAGDFFMAVADDTPVTLISAGVGQTPMLAMLDTLAKAGHTAQVNWFHAAENGDVHAFADEVKELGQSLPRFTAHTWYRQPSEADRAKGQFDSEGLMDLSKLEGAFSDPTMQFYLCGPVGFMQFTAKQLVDLGVKQENIHYECFGPHKVL | 2.41 ± 0.082 | 1.52 ± 0.25 | 1.56 ± 0.032 | 1.85 ± 0.057 | 1.75 ± 0.062 | 2.76 ± 0.13 | 3.62 ± 0.29 | 5.61 ± 0.94 | 1.79 ± 0.19 | 2.36 ± 0.053 | 4.51 ± 0.079 | 7.88 ± 1.2
MLDEKSSNTASVVVLCTAPDEATAQDLAAKVLAEKLAACATLIPGATSLYYWEGKLEQEYEVQMILKTTVSHQQALLECLKSHHPYQTPELLVLPVTHGDTDYLSWLNASLR | 4.37 | 4.22 ± 1.7 | 3.56 |  | 3.26 ± 0.26 |  |  | 7.25 | 3.34 ± 0.39 | 4.91 ± 0.15 | 5.13 ± 0.32 | 
MLDIDKSTVDFLVTENMVQEVEKVLSHDVPLVHAIVEEMVKRDIDRIYFVACGSPLNAAQTAKHLADRFSDLQVYAISGWEFCDNTPYRLDDRCAVIGVSDYGKTEEVIKALELGRACGALTAAFTKRADSPITSAAEFSIDYQADCIWEIHLLLCYSVVLEMITRLAPNAEIGKIKNDLKQLPNALGHLVRTWEEKGRQLGELASQWPMIYTVAAGPLRPLGYKEGIVTLMEFTWTHGCVIESGEFRHGPLEIVEPGVPFLFLLGNDESRHTTERAINFVKQRTDNVIVIDYAEISQGLHPWLAPFLMFVPMEWLCYYLSIYKDHNPDERRYYGGLVEY [P0AC00] |  |  |  |  |  |  | 2.37 ± 0.41 | 2.71 |  |  |  | 
